From CN116041520A (WUHAN ABCLONAL CO LTD, dated 2023)

Target: T1, 重组Human CD63蛋白(Ala103-Val203) (Human, UniProt P08962 103-203)
T1 construct: Fragment 103-203 of human CD63 expressed in 293F cells from vector pBR322 and purified with imidazole elution; also called 重组CD63蛋白; 重组Human CD63成熟蛋白
T1 sequence: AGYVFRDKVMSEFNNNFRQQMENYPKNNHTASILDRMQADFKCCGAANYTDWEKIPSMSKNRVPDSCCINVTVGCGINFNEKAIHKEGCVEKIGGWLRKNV
Assay: sandwich ELISA, 3C5 coated as capture antibody at 2 ug/mL, Human CD63 0-10 ng/mL, OD450

B1: 针对Human CD63的兔单克隆抗体3C5 (antibody, V domains shown)
VH: QEQLVESGGGLVQPEGSLTLTCTASGFTFSTAWMSWVRQAPGKGLEWIGIINTGGTGKTYYASWAKGRFTCSKTSSTTVTLQMTSLTAADTATYFCARETADFNLWGQGTLVTVSS
VL: DVVMTQTPSSTSEPVGGTVTINCQASESVYNNDDLAWLQQKPGQPPKVLIYSASKLASGVPSRFSGSGSGTQFTLTISGVQCDDAASYYCVGLFDGDYFAFGGGTEVVVKG
notes: Coated on the plate as capture antibody at 2 ug/mL; also called 捕获抗体
binding result: binds
